Test: soluble fraction after stress (log2 fold change); higher = more stays soluble; pooled small domains, quantitative proteomics
Details: stress: 75 degC
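Also: 20 min heating vs room temperature control held 20 min.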

HMGGLSAEQKNGIQSVLKNFDPKNLTSADAKSITSEFKKLGVQPGKDLETTMAASGFDAKEVGRLAF
soluble fraction (log2): 0.106

HMGGPRDVPYSTFLIEVEKGQVAEVTIQDHKITGTYKNSNEPFITNAPDDPDLVSRLIKYGVGVQAKPPE
soluble fraction (log2): 0.0896

HMGGREEAGTDIARLLGYINDIHGEELIAKLEYYQKMLGSENFAVLMSRLPDGQKKELREQNLYSEYV
soluble fraction (log2): -0.152

HMGGRRHANMSREEEAAFLAPFFEKAAQGGILVVREIRQALDAHLGRTVPLSTVYNLLHRHNWRKL
soluble fraction (log2): -3.39

HMGGRTITVGISENMTVKDIAQMLEEKGLIEDARLFVVQELLSAYHKEIKPGIYDLSTDMTAAQMLEIMS
soluble fraction (log2): -0.443

HMGGSIDITTAPPGAKIYLDADYYGKTPKRLENISAGTYRLHLLHPEKGEVYRSVTLNEKNGTLKIDENLN
soluble fraction (log2): 0.0541

HMGGTATDYYNQGRTAYDVGDYNGALMNFQEAVRLDPRYGEAYYGLGKAYEALNMQNQALDAYLSAI
soluble fraction (log2): -0.529

HMGGVSTDKPLNWDADGTSKLTQEQIDYLRSTYDLSDMSKQDYYDLMADLTNMNAISIKDVISQYVK
soluble fraction (log2): -0.0294

HMGGYVVVGDKDGFWSVVSTPVSKAKAEELLKDTTFPKGEKGKIVSVAEAMSHKKVIGKEYLESGGT
soluble fraction (log2): 0.0752

HMGHASPGNREALQFALERHQARAAEFAEKAGLSIANASTKFKQLWEQGFLMRNESVADSGGVEFLYQR
soluble fraction (log2): -0.113

HMGHEISLNNSRFLKLLNKTKISISNDDTRHYLNGIFLHLTEAHGRQFLTGVATDSHRLSSSSLEID
soluble fraction (log2): -0.206

HMGHRQRRARARNRSMLEDIPGLGPKRRQQLLRQFGGLPQLMRAGVAELSQVPGISDSLARKIHAELHPES
soluble fraction (log2): -2.73

HMGHYGQMTRDLIEKAKTYEEGEEKAALVLTIANLMKRHYLTWNRATVENTLIAEQLKEMSEGALTLPEDV
soluble fraction (log2): -0.956

HMGIAEGSSVFVRVLAAEDGGRYTVSFAGRRFSVLSRQALGIGSAFRADVKVEKGQVLLVPR
soluble fraction (log2): -2.95

HMGIAERKEKQKLEIRNAILEASRKLIVEEGFEKVTMRKIADLIEYSPTTVYLYFKDKNEILFHLHQ
soluble fraction (log2): -1.54

HMGIDVSAFSDTALEVLRLQAAGYTTREIAQQLHITQRTVKYHASENYRKLDARNLVDAVQIAQSLHI
soluble fraction (log2): -1.5

HMGIEIKLLMSFMTDSGRKVSLFVTDPREDVTETEIKQVMDLIIEKNIFAPNGEDIVSAKEAKIVQT
soluble fraction (log2): -1.35

HMGIERTNADTSFSVNVYGKELIITSNKPLVVNIYAIDGTLVRTEQVTIGVNTVSGLPSGIYVVGQQKVVI
soluble fraction (log2): -1.1

HMGIIVDMSKIKQMLQLSEAGHSNRKIALELGINKETVNNYMQLIRNGRLDIRQLLKMDDPELERRFHA
soluble fraction (log2): -0.965

HMGIKLSDRQMQIVEIVKSQQPITSEQVAERLNLTRAALRSDLSILTMAGILEARPKVGYSLTGR
soluble fraction (log2): -1.97

HMGILPDDVKLNIKEAKKIGFPIMLKAIHGGGGRGMMIVQSEDEFADAMKITKTEAKNSFGNGDLYFEKFF
soluble fraction (log2): 0.408

HMGITRQQALQQINQSASPKKILNASLGKRGSEFVWDIGYLSKSGKLNYVTYSFRSGEQLNAIKN
soluble fraction (log2): -1.03

HMGIVAGGTQSIATLRAIDTTDAQLYPDKILINVEDAGLYRLDRQSTATDDGNQVIKPTVGVGRWLKMTS
soluble fraction (log2): -0.15

HMGIVVDGTMTLEGVAERYGMSVGELARVIGVPPEYSNERLGRLRKSYEFEMDDIRIYIIQKQ
soluble fraction (log2): -1.54

HMGKAYMVPDVKNKSVNQAQLLLADKHMNGVVVDSSYVKELPAGIVLDQTPVGGMKVKEGRTVYLTINSD
soluble fraction (log2): 0.156

HMGKDIYLTSGWVEKFDELNEFSNSVDNYDRLNQFGMYENAIIGDTGVIKITDEMIFDLYEKIQVPVEAGP
soluble fraction (log2): -0.0582

HMGKEDLTAAIKKMTLNDKLDIHKIVANFQTNDSEEVITAVKWLMENNYLLKIKNNYTWNTKEK
soluble fraction (log2): -0.901

HMGKHYLLKDDNGTITIYKILEDGTQEVYEKTEISTTYLPQTDNIGIKQGIRVNGDEALNELIENF
soluble fraction (log2): -0.0623

HMGKKGPELSENEKSIFSILSKSGSMDLTTLKEASGLSNKQWDKGIKGLGKHGLTKVIKTEDALLVEVV
soluble fraction (log2): 0.0471

HMGKKYVPGMAVKLSAVPLYAASTSKVPSTHVTGTYYLWDDEVVRGRLRITNLKSRVGISGQVTGWIDKDR
soluble fraction (log2): -1.95

HMGKNIQAIRYKNNMTQDQVVAKLNLMGISITKSTYAKLETNRMNIKASELVALAKLFHTDINAFFSG
soluble fraction (log2): -3.12

HMGKNYYEILGITKSASEEQVRKAFRGLAMEWHPDRNRSADSEERFKEINEAYQVLIDPKKRQMYDQYGR
soluble fraction (log2): 0.394

HMGKPSSEELEALGRRTLEENVDVVEEILGGRDPKGKKIKYLEGLMMRALRGQETPEAVRRTLEELIFK
soluble fraction (log2): -0.132

HMGKRGKEMQTAVLAILRASDRPYSAYELLESLKDIYPKIAPPTVYRALAALTQRGQIRRLESLNAFI
soluble fraction (log2): -0.221

HMGKRKDFTYTGNYFSEYKNQTFPSLSSFLKLVGKYENYGTIKRRVRFGWDIDEAILRENIN
soluble fraction (log2): -1.94

HMGKSKAAQSSLVRSIMHQISDKNRGPMPLSEIIDRASIQSIDEAIVRSLVSRMKEQGEIYEPSLGTYEF
soluble fraction (log2): -0.105

HMGKTIIQLATDYLIKNMQPKSLHDIESYVLTRKKIKKSSIGAILLSKPNIFGRTEDGLFGLRIWNNFQYT
soluble fraction (log2): -1.37

HMGKTRSTDRTRRAILDAASDLMGKHGTSVSLARIAEAAGMSKGGLLHHFPSRNDLIRALGED
soluble fraction (log2): 0.011

HMGKVNTRNRNEGKFYKNGKKKPANWEYRFEAAPVNGKRQQISDAGYPTEKAAYEAGIAAYEKYNSAGSVN
soluble fraction (log2): -0.0957

HMGKVTILSNPVKDALVIMGLHNAETIDVRLFDNTGRLVMQGSQSRMDISSLSPGLYILQVNGKILKVIK
soluble fraction (log2): -3.2

HMGLASEVKTEDVLNEEKYDFEPDLIGNNNEAIYQNKQTGSYVLFDRNQNKVTKVLSAGEVLNHSKYNE
soluble fraction (log2): -0.138

HMGLDQNTLDRVDDINDTLATGIEIGPETRGTIEELNETLANGLKAGFDEETLARVDELLRVVEDGLK
soluble fraction (log2): 0.0586

HMGLGQRIKARREALGLSQARLGEAVGVSLQAVSNWERDEYLPDTARLPLIARALGLTPGQLME
soluble fraction (log2): -0.182

HMGLKDTEVYMPDVRGLIEEEAQTKLKASFLTMKVSYTSSDEVKKGYVISQAPSADSVVLKGASVTVIVS
soluble fraction (log2): -2.56

HMGLLVPELTAEENVSLAAMIAGVPRQQARSISADLLNRLGLGQMLDRRMGEMSGGQAQRVAIAPIYGKF
soluble fraction (log2): -0.408

HMGLNVSYRMDGENVVETIIFSGATMIRTVTPTGTMTIKTIENGSTSTAKVNADYSVYKKIYEAQY
soluble fraction (log2): -2.69

HMGLPLETVVTHATKLEIVRDGRVSGSIGLSAGVKVDVIALEGDNLQVRYRSLSGRVPVAHTGLAALA
soluble fraction (log2): -1.58

HMGLPPIATGVNDNMSFSQAFAAARAEVGAGGAFEWHGRVYGTYYKNEWDGMSAQERHDFEIAAIRGS
soluble fraction (log2): -0.0369

HMGLSIPLMGAKASDIEISTLNDEVQRKLKIIVKEQGHENLQRVVPLPSEAREIQAHFINGRLHLR
soluble fraction (log2): 0.0158

HMGLYPYSGTPADNQEANERRIFDIYSTHLERIFSDFSGATLRTKRLVLRLMQELVHSDPVRMAGILDEL
soluble fraction (log2): 0.0962

HMGMAQELMESRLTAVFTSGKDQLAVLQRKDGSTLKLGADSKPWRIESFDGRKAVFVSADQQRVERLL
soluble fraction (log2): -0.342

HMGMGIGQIIKEKRTALKMTQNELAERLGVSQQSVTGWENNAAVPRESAVRGMMDIFGLSRNELFGEP
soluble fraction (log2): 0.389

HMGMMTLGQRIAQYRKAMGISQEELGGRLGVSRQAVSKWETDAAAPDMENLLALAREFGVSVAELTETP
soluble fraction (log2): -0.187

HMGMTRPLFVTDPGLVRIGLVSPIFEKLGSGKLSPQLFDQVKEDPPEQTVFDGVEFARETGIDGVIGFG
soluble fraction (log2): 0.00642

HMGMVDKSMYSRYDVGDLVKVLRGPLEGSEGHITEINTDTGTVKVETVFFGRSTVVEVDFSEIDK
soluble fraction (log2): -1.37

HMGNAQELQKKLEGLKGISGIEKLESDHYAEKYLVRITQPVDHKNPAAGTFTQRVIVAHVGFDRPTILVT
soluble fraction (log2): 0.51

HMGNHRNMSAEEEAAILAPFKARAEAGELVEISEIAKAYQSAVDHPISRGQIYFVLHRHGWRKV
soluble fraction (log2): -1.2

HMGNIALAIARFREMIAEDPNLQPVRLHLAMALMADHQDEAARGQLEKLRSDQLPDDIRKIVDDALAALR
soluble fraction (log2): -1.46

HMGNIIITPNPASDFIKIISNSPIIKFGFYDIYGNTINKKFNDNSINISDLPVGMYLINLNERYFKLLK
soluble fraction (log2): -0.259

HMGNIITQEAAVKLAQDRVPNATLVKIEYDFDDGRPVYEGELREGRWEYEFEIDAATGEFLKWEKD
soluble fraction (log2): 0.0823

HMGNKWKPIILYLLSNGSMRFGMLNALIPTISKKVLTNQLKELENDGLLLRQSFAEIPPRVEYSLTEKA
soluble fraction (log2): -2.31

HMGNLASGAYEQIKRRILSLEYLPGSILQERGLAEELGISRTPVREAIHRLSQEGWLKINSRKNIRVR
soluble fraction (log2): -2.32

HMGNLASRVAEQLLDKMRGDSLVPGTRLPSEIAMAKHFGVSRTVMREAIARLKADGLLETRRGSGAFVLAT
soluble fraction (log2): -0.973

HMGNLEENFRLKAGTEDGAWEFIRYHLGKLPVVNESNGTAIVNAERQAFLLFDRMVAFHIQRGVMVPLSAP
soluble fraction (log2): -0.0214

HMGNLVDGINKKLTHVRDSLPEGYTLDEFKSAFQQQYPAAYDAYEGDKGKQFDKWLGNVIQSLPKK
soluble fraction (log2): 0.0554

HMGNNSIDIKDVIYNLVEISQLQAFDIVKHFKTWENLVNKPDELDTVIDGDSDIVDRIKYKIKSLS
soluble fraction (log2): 0.344

HMGNQALSSVLSDIAGIGPVKTKELLRVYPDLDSLRQAPVEEVAKVKGIGRQLAQKIHDHFSSR
soluble fraction (log2): -0.0292

HMGNRWENLISNKMIDDVDEELLRKYIAQAHDAGRIAISYTDRKTVLNQLELTDGDRLLNAGKVLFSD
soluble fraction (log2): -0.392

HMGNTTEVLVATQDVKANTKIKESMFTTERVDTASLPDNYLSADSAKDVVGYYTYIGFTKGSVISKSNIAT
soluble fraction (log2): 0.625

HMGNVRSWKGWTSAGGTRVQMRQGDSINSMARRYGVPIQAIVAVNGIDDPAKVQPGQSVIIPTYVY
soluble fraction (log2): -0.29

HMGNWEQQLRSWADGELATGKQDILTTAVPAFERALIETALSHTNGRKRDAAELLGWGRNTLTRKLKELGM
soluble fraction (log2): -0.401

HMGNYEEAILAFEAAIKIDPKNADAYRKLAEAYEKTGDEDAALRTLETGAEATGDRELADLAEKKRQELDA
soluble fraction (log2): -0.0773

HMGPASTGAHQLGLKPGDEVTHRAWGEGVVTSTTGEGDRAEAVVDFDAVGEKRLLLAWAPLER
soluble fraction (log2): 0.0111

HMGPDTVDRTRRFKWVDNEVVVNFGKNAGRTLRDLAENDPGFLRWIVRSDFSDEVRTIANDALMGKFPTRK
soluble fraction (log2): -0.283

HMGPEAFPVPYVVDIELDRAIYVIEQSGFIVGQKLEANDNNVPRGFVISQNPPAGTKLGPESIVDLVVSS
soluble fraction (log2): -1.16

HMGPLDIAQLKSDFLGGDAQLARRAWDQLATKAGDEGRDFLISSLGSSDPQIRNRVALGIHES
soluble fraction (log2): 0.069
